Source: patent US20110045489A1, “Polymerases for Incorporating Modified Nucleotides” (NEW ENGLAND BIOLABS, INC., priority 2008, published 2011)
Numbering of substitutions follows the chain as printed. In names and notes the source's numbering stands.

B1: 9° N D141A/E143A/N491V/Y494H: 9° N DNA polymerase mutant (protein, UniProt Q56366 1-775, looked up, variant D141A E143A N491V Y494H)
DNA polymerase: MILDTDYITENGKPVIRVFKKENGEFKIEYDRTFEPYFYALLKDDSAIEDVKKVTAKRHGTVVKVKRAEKVQKKFLGRPIEVWKLYFNHPQDVPAIRDRIRAHPAVVDIYEYDIPFAKRYLIDKGLIPMEGDEELTMLAFAIATLYHEGEEFGTGPILMISYADGSEARVITWKKIDLPYVDVVSTEKEMIKRFLRVVREKDPDVLITYNGDNFDFAYLKKRCEELGIKFTLGRDGSEPKIQRMGDRFAVEVKGRIHFDLYPVIRRTINLPTYTLEAVYEAVFGKPKEKVYAEEIAQAWESGEGLERVARYSMEDAKVTYELGREFFPMEAQLSRLIGQSLWDVSRSSTGNLVEWFLLRKAYKRNELAPNKPDERELARRRGGYAGGYVKEPERGLWDNIVYLDFRSLYPSIIITHNVSPDTLNREGCKEYDVAPEVGHKFCKDFPGFIPSLLGDLLEERQKIKRKMKATVDPLEKKLLDYRQRAIKILAVSFHGYYGYAKARWYCKECAESVTAWGREYIEMVIRELEEKFGFKVLYADTDGLHATIPGADAETVKKKAKEFLKYINPKLPGLLELEYEGFYVRGFFVTKKKYAVIDEEGKITTRGLEIVRRDWSEIAKETQARVLEAILKHGDVEEAVRIVKEVTEKLSKYEVPPEKLVIHEQITRDLRDYKATGPHVAVAKRLAARGVKIRPGTVISYIVLKGSGRIGDRAIPADEFDPTKHRYDAEYYIENQVLPAVERILKAFGYRKEDLRYQKTKQVGLGAWLKVKGKK
B2: 9° N D141A/E143A/R406S/L408R: 9° N DNA polymerase mutant (protein, UniProt Q56366 1-775, looked up, variant D141A E143A R406S L408R)
DNA polymerase: B1 DNA polymerase with R406S, L408R, V491N, H494Y
B3: 9° N D141A/E143A/R406L/L408E: 9° N DNA polymerase mutant (protein, UniProt Q56366 1-775, looked up, variant D141A E143A R406L L408E)
DNA polymerase: B1 DNA polymerase with R406L, L408E, V491N, H494Y
B4: 9° N D141A/E143A/R406T/L408R: 9° N DNA polymerase mutant (protein, UniProt Q56366 1-775, looked up, variant D141A E143A R406T L408R)
DNA polymerase: B1 DNA polymerase with R406T, L408R, V491N, H494Y
B5: 9° N D141A/E143A/R406V/L408R: 9° N DNA polymerase mutant (protein, UniProt Q56366 1-775, looked up, variant D141A E143A R406V L408R)
DNA polymerase: B1 DNA polymerase with R406V, L408R, V491N, H494Y
B6: 9° N D141A/E143A/R406T/L408E: 9° N DNA polymerase mutant (protein, UniProt Q56366 1-775, looked up, variant D141A E143A R406T L408E)
DNA polymerase: B1 DNA polymerase with R406T, L408E, V491N, H494Y
B7: 9° N D141A/E143A/R406E/L408G: 9° N DNA polymerase mutant (protein, UniProt Q56366 1-775, looked up, variant D141A E143A R406E L408G)
DNA polymerase: B1 DNA polymerase with R406E, L408G, V491N, H494Y
B8: 9° N D141A/E143A/R406P/L408G: 9° N DNA polymerase mutant (protein, UniProt Q56366 1-775, looked up, variant D141A E143A R406P L408G)
DNA polymerase: B1 DNA polymerase with R406P, L408G, V491N, H494Y
B9: 9° N D141A/E143A/Y409A/R406V: 9° N DNA polymerase mutant (protein, UniProt Q56366 1-775, looked up, variant D141A E143A Y409A R406V)
DNA polymerase: B1 DNA polymerase with R406V, Y409A, V491N, H494Y
B10: 9° N D141A/E143A/Y409A/R406S/L408K: 9° N DNA polymerase mutant (protein, UniProt Q56366 1-775, looked up, variant D141A E143A Y409A R406S L408K)
DNA polymerase: B1 DNA polymerase with R406S, L408K, Y409A, V491N, H494Y
B11: 9° N exo-P410V: 9° N DNA polymerase mutant (protein, UniProt Q56366 1-775, looked up, variant D141A E143A P410V)
DNA polymerase: B1 DNA polymerase with P410V, V491N, H494Y
B12: 9° N D141A/E143A/Y409A/R406S/L408R: 9° N DNA polymerase mutant (protein, UniProt Q56366 1-775, looked up, variant D141A E143A Y409A R406S L408R)
DNA polymerase: B1 DNA polymerase with R406S, L408R, Y409A, V491N, H494Y
B13: 9° N D141A/E143A/Y409A/R406T/L408K: 9° N DNA polymerase mutant (protein, UniProt Q56366 1-775, looked up, variant D141A E143A Y409A R406T L408K)
DNA polymerase: B1 DNA polymerase with R406T, L408K, Y409A, V491N, H494Y
B14: 9° N D141A/E143A/Y409A/R406T/L408R: 9° N DNA polymerase mutant (protein, UniProt Q56366 1-775, looked up, variant D141A E143A Y409A R406T L408R)
DNA polymerase: B1 DNA polymerase with R406T, L408R, Y409A, V491N, H494Y
B15: 9° N D141A/E143A/Y409A/R406H/L408G: 9° N DNA polymerase mutant (protein, UniProt Q56366 1-775, looked up, variant D141A E143A Y409A R406H L408G)
DNA polymerase: B1 DNA polymerase with R406H, L408G, Y409A, V491N, H494Y
B16: 9° N D141A/E143A/Y409A/R406Y/L408G: 9° N DNA polymerase mutant (protein, UniProt Q56366 1-775, looked up, variant D141A E143A Y409A R406Y L408G)
DNA polymerase: B1 DNA polymerase with R406Y, L408G, Y409A, V491N, H494Y
B17: 9° N D141A/E143A/Y409A/R406L/L408G: 9° N DNA polymerase mutant (protein, UniProt Q56366 1-775, looked up, variant D141A E143A Y409A R406L L408G)
DNA polymerase: B1 DNA polymerase with R406L, L408G, Y409A, V491N, H494Y
B18: 9° N D141A/E143A/Y409A/R406P/L408C: 9° N DNA polymerase mutant (protein, UniProt Q56366 1-775, looked up, variant D141A E143A Y409A R406P L408C)
DNA polymerase: B1 DNA polymerase with R406P, L408C, Y409A, V491N, H494Y
B19: 9° N D141A/E143A/Y409A/R406S/L408I: 9° N DNA polymerase mutant (protein, UniProt Q56366 1-775, looked up, variant D141A E143A Y409A R406S L408I)
DNA polymerase: B1 DNA polymerase with R406S, L408I, Y409A, V491N, H494Y
B20: 9° N D141A/E143A/Y409A/R406V/L408Y: 9° N DNA polymerase mutant (protein, UniProt Q56366 1-775, looked up, variant D141A E143A Y409A R406V L408Y)
DNA polymerase: B1 DNA polymerase with R406V, L408Y, Y409A, V491N, H494Y
B21: 9° N D141A/E143A/Y409A/R406V/A485L: 9° N DNA polymerase mutant (protein, UniProt Q56366 1-775, looked up, variant D141A E143A Y409A R406V A485L)
DNA polymerase: B1 DNA polymerase with R406V, Y409A, A485L, V491N, H494Y
B22: Mma D153A/E155A/L417S/P419V: Methanococcus maripaludis DNA polymerase mutant (protein)
chain: MESLIDLDYNSDDLCIYLYLINSIIKEKDFKPYFYVNSTDKEQILEFLKDYEKKHKLDSEISKMIENIETVKKIVFDENYQEKELSKVTVKYPNNVKTVREILMEFERLYEYDIPFVRRYLIDNSVIPTSTWDFENNKKIDNKIPDFKTVSFAIAVYCNKEPNPKKDPIIMASFSSKDFNTVVSTKKFDHEKLEYVKDEKELIKRIIEILKEYDIIYTYNGDNFDFPYLKKRAESFGLELKLGKNDEKIKITKGGMNSKSYIPGRVHIDLYPIARRLLNLTKYRLENVTEALFDVKKVDVGHENIPKMWDNLDETLVEYSHQDAYYTQRIGEQFLPLEIMFSRVVNQSLYDINRMSSSQMVEYLLLKNSYKMGVIAPNRPSGKEYQKRIRSSYEGGYVKEPLKGIHEDIVSMDFLSSYVSIIMSHNLSPETIDCTCCSDEENGENEEILGHKFCKKSIGIIPKTLMDLINRRKKVKKVLREKAEKGEFDEEYQILDYEQRSIKVLANSHYGYLAFPMARWYSRDCAEITTHLGRQYIQKTIEEAENFGFKVIYADTDGFYSKWADDKEKLSKYELLEKTREFLKNINNTLPGEMELEFEGYFKRGIFVTKKKYALIDENEKITVKGLEVVRRDWSNVSKNTQKNVLNALLKEGSVENAKKVIQDTIKELKDGKVNNEDLLIHTQLTKRIEDYKTTAPHVEVAKKILKSGNRVNTGDVISYIITSGNKSISERAEILENAKNYDTNYYIENQILPPVIRLMEALGITKDELKDSKKQYTLHHFLK

Each molecule was assayed on modified nucleotide (assay: Screen of DNA polymerase mutants for modified nucleotide incorporation).
Assay type: biochemical
From the text: In order to determine the extent of 3′-modified nucleotide incorporation by archaeon DNA polymerases, the titration assay described by Gardner and Jack (2002) was used. In this assay, the efficiency of incorporation of chain terminators was judged by the size of the reaction products in a polymerization reaction. As the efficiency of chain-terminator incorporation increased, the average reaction product size decreased because polymerization was more often halted by terminator addition. By comparing the amount of terminator required to give the same spectrum of reaction products, the relative efficiency of incorporation of the test compounds with the different polymerases was determined.
A complex library of 9° N DNA polymerase mutants was screened for enhanced incorporation of 3′-azido-ddCTP. Several classes of 9° N DNA polymerase mutants were identified with enhanced terminator incorporation. 9° N exo-L408S/Y409A/P410V (Therminator III™, NEB, Inc., Ipswich, Mass.) was purified and characterized in more detail. 9° N DNA polymerase single mutants P410V, L408S, and Y409A and double mutants L408S/P410V, L408S/Y409A, and Y409A/P410V were also purified for comparison. Purification and characterization of DNA polymerase mutants was as described in Gardner and Jack, Nucleic Acids Res. 27:2545-2553 (1999).
A library of 9° N DNA polymerase mutants was constructed by PCR amplification of the polymerase genes using gene-specific primers or codon optimization and gene synthesis Czar et al. Trends Biotechnol 27(2): 63-72 (2009)). The ability to incorporate 3′-modified nucleotide terminators was evaluated by the titration assay for chain terminator incorporation efficiency as described by Gardner and Jack (2002).
Furthermore, the same assay was used to measure 3′-amino-ddCTP incorporation by 9° N exo-L408S/Y409A/P410V (FIG. 3) and to measure rates of incorporation (FIG. 4). Examples of mutants that increased modified nucleotide incorporation by at least two-fold were: […]

Row | Molecule | increase of modified nucleotide incorporation
1 | B1 | at least two-fold
2 | B2 | at least two-fold
3 | B3 | at least two-fold
4 | B4 | at least two-fold
5 | B5 | at least two-fold
6 | B6 | at least two-fold
7 | B7 | at least two-fold
8 | B8 | at least two-fold
9 | B9 | at least two-fold
10 | B10 | at least two-fold
11 | B11 | at least two-fold
12 | B12 | at least two-fold
13 | B13 | at least two-fold
14 | B14 | at least two-fold
15 | B15 | at least two-fold
16 | B16 | at least two-fold
17 | B17 | at least two-fold
18 | B18 | at least two-fold
19 | B19 | at least two-fold
20 | B20 | at least two-fold
21 | B21 | at least two-fold
22 | B22 | at least two-fold
